# Results from patent publication US20210261606A1 (JSR, published 2021).
# B1: mutant VHH antibody 2bS13-97H (VHH)
# VHH: QVQLVESGGGLVQAGGSLRLSCAASGISFAINNVAWYRQAPGKQRDLVALIDKYDTGNIADSVKGRFSISRDNAKNTAYLQMNSLKPEDTAVYYCNHLGTWIRAGPYWGQGTQVTVSS
# B2: mutant VHH antibody 2bS13-102H (VHH)
# VHH: QVQLVESGGGLVQAGGSLRLSCAASGISFAINNVAWYRQAPGKQRDLVALIDKYDTGNIADSVKGRFSISRDNAKNTAYLQMNSLKPEDTAVYYCNALGTWHRAGPYWGQGTQVTVSS
# notes: also called 2b513-102H
# B3: mutant VHH antibody 2bS13-100H (VHH)
# VHH: QVQLVESGGGLVQAGGSLRLSCAASGISFAINNVAWYRQAPGKQRDLVALIDKYDTGNIADSVKGRFSISRDNAKNTAYLQMNSLKPEDTAVYYCNALGHWIRAGPYWGQGTQVTVSS
# notes: also called 2bS13-100H/PB (as ligand on the carrier)
# Target: T1, trastuzumab Fab
# T1 construct: Made by papain digestion of trastuzumab (Herceptin); also called Fab of trastuzumab (Herceptin)
# Assay: Biacore SPR, trastuzumab Fab immobilized, VHH as analyte, pH 7.4
# Method: Those VHH antibodies were dispersed in HBS-EP (10 mM Hepes, 150 mM NaCl, 3 mM EDTA, and 0.005% Tween-20) to produce 12.5 to 150 nM VHH antibody solutions. The trastuzumab Fab prepared in Test Example 1 was immobilized on a Biacore sensor chip, and each VHH antibody solution was applied thereto. The measurements were performed under neutral conditions (pH 7.4). Curve fitting utilizing binding model was applied to association and dissociation behaviors, whereby evaluating the association rate constant (Kon), the dissociation rate constant (Koff), and the affinity (KD). Furthermore, this sensor chip was washed with an acidic eluent (10 mM Glycine-HCl+0.5M NaCl, pH 2.0) to measure a signal. From the obtained signal shape, the elution behavior of Ig by the acid was examined.
Binder,Kd,koff,kon
B1,0.205 nM,0.004 s⁻¹,1.97e+07 M⁻¹ s⁻¹
B2,1.44 nM,0.0227 s⁻¹,1.58e+07 M⁻¹ s⁻¹
B3,0.376 nM,0.0078 s⁻¹,2.08e+07 M⁻¹ s⁻¹
